Test results published in patent publication US20050186649 (published 2005).

B1: human plasmin (protein)
chain: KVYLSECKTGNGKNYRGTMSKTKNGITCQKWSSTSPHRPRFSPATHPSEGLEENYCRNPDNDPQGPWCYTTDPEKRYDYCDILECEEECMHCSGENYDGKISKTMSGLECQAWDSQSPHAHGYIPSKFPNKNLKKNYCRNPDRELRPWCFTTDPNKRWELCDIPRCTTPPPSSGPTYQCLKGTGENYRGNVAVTVSGHTCQHWSAQTPHTHNRTPENFPCKNLDENYCRNPDGKRAPWCHTTNSQVRWEYCKIPSCDSSPVSTEQLAPTAPPELTPVVQDCYHGDGQSYRGTSSTTTTGKKCQSWSSMTPHRHQKTPENYPNAGLTMNYCRNPDADKGPWCFTTDPSVRWEYCNLKKCSGTEASVVAPPPVVLLPDVETPSEEDCMFGNGKGYRGKRATTVTGTPCQDWAAQEPHRHSIFTPETNPRAGLEKNYCRNPDGDVGGPWCYTTNPRKLYDYCDVPQCAAPSFDCGKPQVEPKKCPGRVVGGCVAHPHSWPWQVSLRTRFGMHFCGGTLISPEWVLTAAHCLEKSPRPSSYKVILGAHQEVNLEPHVQEIEVSRLFLEPTRKDIALLKLSSPAVITDKVIPACLPSPNYVVADRTECFITGWGETQGTFGAGLLKEAQLPVIENKVCNRYEFLNGRVQSTELCAGHLAGGTDSCQGDSGGPLVCFEKDKYILQGVTSWGLGCARPNKPGVYVRVSRFVTWIEGVMRNN

What was measured:
[1] = molecular target: B1
[2] = molecular target: B1
[3] = molecular target: BPTI (Bos taurus)

| Binder | Kd [1] | Ki [2] | Kd [3] |
| --- | --- | --- | --- |
| SPI11 (protein) MHSFCAFKAETGPCRARFDRWFFNIFTRQCEEFIYGGCEGNQNRFESLEECKKMCTRD | 0.088 nM | 0.088 nM |  |
| SPI22 (protein) MHSFCAFKADGGPCKGKFPRFFFNIFTRQCEEFIYGGCEGNQNRFESLEECKKMCTRD | > 2 nM |  |  |
| SPI54 (protein) MHSFCAFKADSGPCRARFDRWFFNIFTRQCTRFPYGGCGGNQNRFESLEECKKMCTRD | > 4 nM |  |  |
| SPI43 (protein) MHSFCAFKAETGPCRGKFDRWFFNIFTRQCESFHYGGCKGNQNRFESLEECKKMCTRD | > 4 nM |  |  |
| SPI47 (protein) MHSFCAFKADAGPCRAKFERFFFNIFTRQCEEFIYGGCEGNQNRFESLEECKKMCTRD | ~0.8 nM |  |  |
| SPI23 (protein) MHSFCAFKAEGGPCRAKFQRWFFNIFTRQCEEFIYGGCEGNQNRFESLEECKKMCTRD | ~0.5 nM |  |  |
| B1 |  |  | 0.3 nM |
| QS4 (protein) MHSFCAFKADDGPCKARFERFFFNIFTRQCEQFYYGGCDGNQNRFESLEECKKMCTRD | 2 nM |  |  |
| SPI51 (protein) MHSFCAFKADAGPCRAKFERFFFNIFTRQCTAFFYGGCGGNQNRFESLEECKKMCTRD | ~0.5 nM |  |  |
